Measurements: patent publication US7217865B2, “Transgenic high tryptophan plants” (Monsanto Technology LLC, priority 2001, dated 2007)
Where two headings read alike, the source gives them in different places.

Columns and labels:
[1] = test system: C=C(O[C@@H]1C=C(C(=O)O)C=C[C@H]1O)C(=O)O; test: Anthranilate synthase enzyme assay and kinetic analysis, wild type; format: biochemical, Agrobacterium tumefaciens; details: other: wild type, 25° C., pH 7.0, 10 mM L-glutamine, 2.5–100 μM chorismate
Description: (§1) Agrobacterium tumefaciens AS wild type and mutant enzymes were expressed in E. coli as described in Example 1. The purification of all the Agrobacterium tumefaciens AS enzymes, including wild type and mutants therof, was performed at 4° C. The cells (approximate wet weight of 1 g) were suspended in 20 ml of purification buffer (50 mM potassium phosphate, pH […], 10 mM 2-mercaptoethanol, 10% glycerol) and lysed by ultrasonication (Branson sonifier Cell Disruptor, W185). Supernatant was collected after centrifugation of the homogenate at 20,000× g for 15 min. The supernatant was subjected to ammonium sulfate fractionation (30 to 65% saturation). The precipitate was collected after centrifugation at 20,000× g for […] and dissolved in 3 ml of the purification buffer and then loaded as a whole on an Econo-Pac 10DG desalting column, pre-equilibrated with the same buffer. Fractions containing the enzyme were detected by the developed assay and pooled. The pooled enzyme (4.3 mls) was loaded on a 10 ml DEAE Sephacel (Pharmacia Biotech) column (1.5×7.5 cm) equilibrated with the same buffer. The column was washed with 30 ml of the purification buffer and the enzyme was eluted with 30 ml of 50 mM NaCl in the same buffer. Fractions containing high AS activity were pooled and precipitated by 65% ammonium sulfate saturation and isolated and desalted as above. Fractions containing the enzyme were pooled and stored at −80° C.
(§2) The standard assay for Agrobacterium tumefaciens AS was performed at 25° C. in an assay buffer containing 100 mM potassium phosphate, pH 7.0, 1 0 mM MgCl2, 1 mM dithiothreitol, 200 μM chorismate and 10 mM L-glutamine. The reaction was started by adding 30 μl of enzyme to the reaction mixture and mixing. The formation of anthranilate was directly monitored by the absorbance increase at […] for 3 min. Initial rate of reaction was calculated as unit absorbance increase per second based on the slope of the absorbance change over the reaction time. Km for chorismate (Km^Cho) was determined in the total volume of 1 ml assay buffer containing 100 mM potassium phosphate, pH 7.0, 10 mM MgCl2, 1 mM dithiothreitol with 10 mM L-glutamine and varying the concentration of chorismate between 2.5–100 μM chorismate. The Km for glutamine (Km^Gln) was determined in the total volume of 1 ml assay buffer containing 100 mM potassium phosphate, pH 7.0, 10 mM MgCl2, 1 mM dithiothreitol with 200 μM chorismate and varying the concentration of L-glutamine between 0.1–2 mM L-glutamine. IC50 for tryptophan (IC50TrP) was determined with in the total volume of 1 ml assay buffer containing 100 mM potassium phosphate, pH 7.0, 10 mM MgCl2, 1 mM dithiothreitol, 10 mM L-glutamine, 200 μM chorismate and varying the concentration of L-tryptophan between 0.1–10 mM L-tryptophan. Kinetic parameters and IC50 of AS were calculated after fitting the data to a non-linear regression program (GraFit).

NC(=O)CC[C@H](N)C(=O)O [2] = test: as above; format: biochemical, Agrobacterium tumefaciens; details: other: wild type, pH 7.0, 200 μM chorismate, 0.1–2 mM L-glutamine, 25.0 °C
Description: as §1, §2

[3] = test system: C=C(O[C@@H]1C=C(C(=O)O)C=C[C@H]1O)C(=O)O; test: Anthranilate synthase enzyme assay and kinetic analysis, N52F mutant; format: biochemical, Agrobacterium tumefaciens; details: other: N52F, pH 7.0, 10 mM L-glutamine, 2.5–100 μM chorismate, 25.0 °C
Text: (§3) Site directed mutagenesis was used to generate ten single amino acid substitutions six sites. The mutations were introduced into the Agrobacterium tumefaciens AS in pMON34705 using the QuikChange™ Site-Directed Mutagenesis Kit (Stratagene). The primers used for site directed mutagenesis were SEQ ID NO:9–42 (FIG. 7; F=forward, R=reverse). Each primer sequence is specific for alteration of the nucleic acid at a specific location in the sequence and thus changing the encoded codon to code for a new amino acid. For example, S51C designates a change from serine to cysteine at amino acid position 51 in the Agrobacterium tumefaciens AS peptide sequence.
(§4) Following mutagenesis the sequence of the entire gene was reconfirmed and the variants expressed and purified from E. coli as described below for the wild type enzyme. The resultant plasmids comprising mutant Agrobacterium tumefaciens AS are suitably cloned into a plasmid for overproduction of protein using the T7 expression system as described in Example 1.
as §1
(§5) The standard assay for Agrobacterium tumefaciens AS was performed at 25° C. in an assay buffer containing 100 mM potassium phosphate, pH 7.0, 1 0 mM MgCl2, 1 mM dithiothreitol, 200 μM chorismate and 10 mM L-glutamine. The reaction was started by adding 30 μl of enzyme to the reaction mixture and mixing. The formation of anthranilate was directly monitored by the absorbance increase at […] for 3 min. Initial rate of reaction was calculated as unit absorbance increase per second based on the slope of the absorbance change over the reaction time. Km for chorismate (Km^Cho) was determined in the total volume of 1 ml assay buffer containing 100 mM potassium phosphate, pH 7.0, 10 mM MgCl2, 1 mM dithiothreitol with 10 mM L-glutamine and varying the concentration of chorismate between 2.5–100 μM chorismate. […] Kinetic parameters and IC50 of AS were calculated after fitting the data to a non-linear regression program (GraFit).

NC(=O)CC[C@H](N)C(=O)O [4] = test: as above; format: biochemical, Agrobacterium tumefaciens; details: other: N52F, pH 7.0, 200 μM chorismate, 0.1–2 mM L-glutamine, 25.0 °C
Text: as §3, §4, §1, §5

[5] = test system: C=C(O[C@@H]1C=C(C(=O)O)C=C[C@H]1O)C(=O)O; test: Anthranilate synthase enzyme assay and kinetic analysis, P293A mutant; format: biochemical, Agrobacterium tumefaciens; details: other: P293A, pH 7.0, 10 mM L-glutamine, 2.5–100 μM chorismate, 25.0 °C
Text: as §3, §4, §1, §5

NC(=O)CC[C@H](N)C(=O)O [6] = test: as above; format: biochemical, Agrobacterium tumefaciens; details: other: P293A, pH 7.0, 200 μM chorismate, 0.1–2 mM L-glutamine, 25.0 °C
Text: as §3, §4, §1, §5

[7] = test system: C=C(O[C@@H]1C=C(C(=O)O)C=C[C@H]1O)C(=O)O; test: Anthranilate synthase enzyme assay and kinetic analysis, P293G mutant; format: biochemical, Agrobacterium tumefaciens; details: other: P293G, pH 7.0, 10 mM L-glutamine, 2.5–100 μM chorismate, 25.0 °C
Text: as §3, §4, §1, §5

NC(=O)CC[C@H](N)C(=O)O [8] = test: as above; format: biochemical, Agrobacterium tumefaciens; details: other: P293G, pH 7.0, 200 μM chorismate, 0.1–2 mM L-glutamine, 25.0 °C
Text: as §3, §4, §1, §5

[9] = test system: C=C(O[C@@H]1C=C(C(=O)O)C=C[C@H]1O)C(=O)O; test: Anthranilate synthase enzyme assay and kinetic analysis, S50K mutant; format: biochemical, Agrobacterium tumefaciens; details: other: S50K, pH 7.0, 10 mM L-glutamine, 2.5–100 μM chorismate, 25.0 °C
Text: as §3, §4, §1, §5

NC(=O)CC[C@H](N)C(=O)O [10] = test: as above; format: biochemical, Agrobacterium tumefaciens; details: other: S50K, pH 7.0, 200 μM chorismate, 0.1–2 mM L-glutamine, 25.0 °C
Text: as §3, §4, §1, §5

[11] = test system: C=C(O[C@@H]1C=C(C(=O)O)C=C[C@H]1O)C(=O)O; test: Anthranilate synthase enzyme assay and kinetic analysis, S51C mutant; format: biochemical, Agrobacterium tumefaciens; details: other: S51C, pH 7.0, 10 mM L-glutamine, 2.5–100 μM chorismate, 25.0 °C
Text: as §3, §4, §1, §5

NC(=O)CC[C@H](N)C(=O)O [12] = test: as above; format: biochemical, Agrobacterium tumefaciens; details: other: S51C, pH 7.0, 200 μM chorismate, 0.1–2 mM L-glutamine, 25.0 °C
Text: as §3, §4, §1, §5

[13] = test system: C=C(O[C@@H]1C=C(C(=O)O)C=C[C@H]1O)C(=O)O; test: Anthranilate synthase enzyme assay and kinetic analysis, S51F mutant; format: biochemical, Agrobacterium tumefaciens; details: other: S51F, pH 7.0, 10 mM L-glutamine, 2.5–100 μM chorismate, 25.0 °C
Text: as §3, §4, §1, §5

NC(=O)CC[C@H](N)C(=O)O [14] = test: as above; format: biochemical, Agrobacterium tumefaciens; details: other: S51F, pH 7.0, 200 μM chorismate, 0.1–2 mM L-glutamine, 25.0 °C
Text: as §3, §4, §1, §5

[15] = test system: Agrobacterium tumefaciens AS; test: Anthranilate synthase enzyme assay and kinetic analysis of purified enzymes; format: biochemical; details: for IC50: inhibition by L-tryptophan
Description: as §1, §2

[16] = Km for chorismate, 10 mM L-glutamine, pH 7.0, 25° C., read-out: Km^Cho
[17] = Km for glutamine, 200 μM chorismate, pH 7.0, read-out: Km^Gln
[18] = 10 mM L-glutamine, 200 μM chorismate

Molecule: Agrobacterium tumefaciens anthranilate synthase (AgroAS), wild type, SEQ ID NO:4 (Agrobacterium fabrum str. C58)
- Km [1]: 8.0 µM
- kcat [1]: 0.43 s⁻¹
- kcat/Km [1]: 53700 M⁻¹ s⁻¹
- Km (NC(=O)CC[C@H](N)C(=O)O [2]): 110 µM

Molecule: Agrobacterium tumefaciens anthranilate synthase variant N52F, SEQ ID NO:62 (Agrobacterium fabrum str. C58; N52F)
- Km [3]: 5.5 µM
- kcat [3]: 0.21 s⁻¹
- kcat/Km [3]: 38200 M⁻¹ s⁻¹
- Km (NC(=O)CC[C@H](N)C(=O)O [4]): 40 µM

Molecule: Agrobacterium tumefaciens anthranilate synthase variant P293A, SEQ ID NO:63 (Agrobacterium fabrum str. C58; P293A)
- Km [5]: 24 µM
- kcat [5]: 0.35 s⁻¹
- kcat/Km [5]: 14600 M⁻¹ s⁻¹
- Km (NC(=O)CC[C@H](N)C(=O)O [6]): 160 µM

Molecule: Agrobacterium tumefaciens anthranilate synthase variant P293G, SEQ ID NO:64 (Agrobacterium fabrum str. C58; P293G)
- Km [7]: 33 µM
- kcat [7]: 0.48 s⁻¹
- kcat/Km [7]: 14500 M⁻¹ s⁻¹
- Km (NC(=O)CC[C@H](N)C(=O)O [8]): 70 µM

Molecule: Agrobacterium tumefaciens anthranilate synthase variant S50K, SEQ ID NO:69 (Agrobacterium fabrum str. C58; S50K)
- Km [9]: 13 µM
- kcat [9]: 0.13 s⁻¹
- kcat/Km [9]: 10000 M⁻¹ s⁻¹
- Km (NC(=O)CC[C@H](N)C(=O)O [10]): 10 µM

Molecule: Agrobacterium tumefaciens anthranilate synthase variant S51C, SEQ ID NO:61 (Agrobacterium fabrum str. C58; S51C)
- Km [11]: 2.8 µM
- kcat [11]: 0.15 s⁻¹
- kcat/Km [11]: 53600 M⁻¹ s⁻¹
- Km (NC(=O)CC[C@H](N)C(=O)O [12]): 80 µM

Molecule: Agrobacterium tumefaciens anthranilate synthase variant S51F, SEQ ID NO:60 (Agrobacterium fabrum str. C58; S51F)
- Km [13]: 10 µM
- kcat [13]: 0.08 s⁻¹
- kcat/Km [13]: 8000 M⁻¹ s⁻¹
- Km (NC(=O)CC[C@H](N)C(=O)O [14]): 60 µM

B1: F298A (protein)
chain: MVTIIQDDGAETYETKGGIQVSRKRRPTDYANAIDNYIEKLDSHRGAVFSSNYEYPGRYTRWDTAIVDPPLGISCFGRKMWIEAYNGRGEVLLDFITEKLKATPDLTLGASSTRRLDLTVNEPDRVFTEEERSKIPTVFTALRAIVDLFYSSADSAIGLFGAFGYDLAFQFDAIKLSLARPEDQRDMVLFLPDEILVVDHYSAKAWIDRYDFEKDGMTTDGKSSDITPDPFKTTDTIPPKGDHRPGEYSELVVKAKESFRRGDLFEVVPGQKFMERCESNPSAISRRLKAINPSPYSAFINLGDQEYLVGASPEMFVRVSGRRIETCPISGTIKRGDDPIADSEQILKLLNSKKDESELTMCSDVDRNDKSRVCEPGSVKVIGRRQIEMYSRLIHTVDHIEGRLRDDMDAFDGFLSHAWAVTVTGAPKLWAMRFIEGHEKSPRAWYGGAIGMVGFNGDMNTGLTLRTIRIKDGIAEVRAGATLLNDSNPQEEEAETELKASAMISAIRDAKGTNSAATKRDAAKVGTGVKILLVDHEDSFVHTLANYFRQTGATVSTVRSPVAADVFDRFQPDLVVLSPGPGSPTDFDCKATIKAARARDLPIFGVCLGLQALAEAYGGELRQLAVPMHGKPSRIRVLEPGLVFSGLGKEVTVGRYHSIFADPATLPRDFIITAESEDGTIMGIEHAKEPVAAVQFHPESIMTLGQDAGMRMIENVVVHLTRKAKTKAA
- kcat [15]: 0.46 s⁻¹
- Km [15, 16]: 9.2 µM
- Km [15, 17]: 100 µM
- IC50 [15, 18]: 5.5 µM

B2: F298W (protein)
chain: MVTIIQDDGAETYETKGGIQVSRKRRPTDYANAIDNYIEKLDSHRGAVFSSNYEYPGRYTRWDTAIVDPPLGISCFGRKMWIEAYNGRGEVLLDFITEKLKATPDLTLGASSTRRLDLTVNEPDRVFTEEERSKIPTVFTALRAIVDLFYSSADSAIGLFGAFGYDLAFQFDAIKLSLARPEDQRDMVLFLPDEILVVDHYSAKAWIDRYDFEKDGMTTDGKSSDITPDPFKTTDTIPPKGDHRPGEYSELVVKAKESFRRGDLFEVVPGQKFMERCESNPSAISRRLKAINPSPYSWFINLGDQEYLVGASPEMFVRVSGRRIETCPISGTIKRGDDPIADSEQILKLLNSKKDESELTMCSDVDRNDKSRVCEPGSVKVIGRRQIEMYSRLIHTVDHIEGRLRDDMDAFDGFLSHAWAVTVTGAPKLWAMRFIEGHEKSPRAWYGGAIGMVGFNGDMNTGLTLRTIRIKDGIAEVRAGATLLNDSNPQEEEAETELKASAMISAIRDAKGTNSAATKRDAAKVGTGVKILLVDHEDSFVHTLANYFRQTGATVSTVRSPVAADVFDRFQPDLVVLSPGPGSPTDFDCKATIKAARARDLPIFGVCLGLQALAEAYGGELRQLAVPMHGKPSRIRVLEPGLVFSGLGKEVTVGRYHSIFADPATLPRDFIITAESEDGTIMGIEHAKEPVAAVQFHPESIMTLGQDAGMRMIENVVVHLTRKAKTKAA
- kcat [15]: 0.44 s⁻¹
- Km [15, 16]: 18 µM
- Km [15, 17]: 140 µM
- IC50 [15, 18]: 450 µM
